# B1: Pyridoxal 5'-phosphate synthase subunit PDX1.3 (Arabidopsis thaliana (Mouse-ear cress)), Q8L940 (parent)
# chain: MEGTGVVAVYGNGAITEAKKSPFSVKVGLAQMLRGGVIMDVVNAEQARIAEEAGACAVMALERVPADIRAQGGVARMSDPQMIKEIKQAVTIPVMAKARIGHFVEAQILEAIGIDYIDESEVLTLADEDHHINKHNFRIPFVCGCRNLGEALRRIREGAAMIRTKGEAGTGNIIEAVRHVRSVNGDIRVLRNMDDDEVFTFAKKLAAPYDLVMQTKQLGRLPVVQFAAGGVATPADAALMMQLGCDGVFVGSGIFKSGDPARRARAIVQAVTHYSDPEMLVEVSCGLGEAMVGINLNDEKVERFANRSE
# partner: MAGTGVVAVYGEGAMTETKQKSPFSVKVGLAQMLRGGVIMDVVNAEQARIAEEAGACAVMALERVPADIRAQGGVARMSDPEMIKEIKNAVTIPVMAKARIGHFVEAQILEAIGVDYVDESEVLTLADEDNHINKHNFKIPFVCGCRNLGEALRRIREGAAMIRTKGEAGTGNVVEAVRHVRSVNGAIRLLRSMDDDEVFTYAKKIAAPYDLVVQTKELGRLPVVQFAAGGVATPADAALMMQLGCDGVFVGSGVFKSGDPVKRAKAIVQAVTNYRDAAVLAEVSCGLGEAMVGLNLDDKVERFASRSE
# B2: Pyridoxal 5'-phosphate synthase subunit PDX1.3 (Arabidopsis thaliana (Mouse-ear cress)), Q8L940 (parent)
# chain: B1 chain
# partner: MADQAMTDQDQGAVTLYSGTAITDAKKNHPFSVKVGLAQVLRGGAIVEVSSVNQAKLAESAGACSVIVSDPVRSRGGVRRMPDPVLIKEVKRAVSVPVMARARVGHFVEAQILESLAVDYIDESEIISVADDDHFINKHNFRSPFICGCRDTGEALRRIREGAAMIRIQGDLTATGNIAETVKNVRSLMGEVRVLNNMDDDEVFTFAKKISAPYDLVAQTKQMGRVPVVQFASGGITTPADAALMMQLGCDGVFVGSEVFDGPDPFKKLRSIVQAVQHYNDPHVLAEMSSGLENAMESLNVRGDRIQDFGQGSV
# B3: Pyridoxal 5'-phosphate synthase subunit PDX1.3 (Arabidopsis thaliana (Mouse-ear cress)), Q8L940 (parent)
# chain: B1 chain
# partner: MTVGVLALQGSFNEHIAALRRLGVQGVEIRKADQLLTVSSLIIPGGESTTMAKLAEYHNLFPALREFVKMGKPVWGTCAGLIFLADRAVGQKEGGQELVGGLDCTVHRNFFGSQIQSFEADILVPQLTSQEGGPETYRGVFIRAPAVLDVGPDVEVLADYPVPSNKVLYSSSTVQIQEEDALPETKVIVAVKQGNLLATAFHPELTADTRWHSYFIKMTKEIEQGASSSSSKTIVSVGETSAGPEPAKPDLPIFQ
# Variants of: B1
# Settings: with pdx11_arath PDX11, O80448
row,Variant,effect of a mutation on the interaction
1,G54S,disrupting interaction

# Variants of: B2
# Settings: with pdx12_arath PDX12, Q9ZNR6
row,Variant,effect of a mutation on the interaction
1,G54S,disrupting interaction

# Variants of: B3
# Settings: with pdx2_arath PDX2, Q8LAD0
row,Variant,effect of a mutation on the interaction
1,G54S,disrupting interaction

# Reference: IntAct's records for PubMed 16766694
